Source: patent US8158579B2, “Fusion protein of an exendin to modified transferrin” (BioRexis Pharmaceutical Corporation, priority 2006, dated 2012)

Target: T1, rat GLP-1 receptor (Rattus norvegicus, UniProt P32301)
T1 construct: expressed in transfected cells; host or cells: CHO (CHO-GLP-1R)
T1 sequence (P32301 22-463): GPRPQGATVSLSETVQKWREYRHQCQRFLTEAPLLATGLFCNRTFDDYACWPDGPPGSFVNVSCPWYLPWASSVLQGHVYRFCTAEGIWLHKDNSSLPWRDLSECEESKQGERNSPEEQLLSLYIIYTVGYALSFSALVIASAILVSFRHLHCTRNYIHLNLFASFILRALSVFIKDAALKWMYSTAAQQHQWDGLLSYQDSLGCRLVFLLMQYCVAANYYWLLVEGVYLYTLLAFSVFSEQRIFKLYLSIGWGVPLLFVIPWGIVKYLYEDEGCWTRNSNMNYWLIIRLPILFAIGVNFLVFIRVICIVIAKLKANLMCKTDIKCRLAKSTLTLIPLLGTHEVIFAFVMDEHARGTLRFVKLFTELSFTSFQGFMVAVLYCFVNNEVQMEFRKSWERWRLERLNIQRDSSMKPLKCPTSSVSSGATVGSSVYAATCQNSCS
Assay: cAMP potency assay in CHO cells transfected with the rat GLP-1 receptor (CHO-GLP-1R)
Type: cell-based
Conditions: cAMP accumulation in CHO-GLP-1R cells
Protocol: 96-well tissue culture plates were seeded with CHO-GLP-1R cells and cultured overnight. The following day, the cells were rinsed with Krebs-Ringer buffer (KRB) and incubated in KRB containing the phosphodiesterase inhibitor 3-isobutyl-1-methylxanthine (IBMX, 2 mM) to inhibit intracellular enzymes that process cAMP. Serial dilutions of test compounds and controls were prepared in KRB/IBMX and triplicate wells of cells were inoculated with samples and controls. After incubation, individual sample lysates were then assayed to measure the increase in intracellular cAMP levels using a competition-based fluorescent immunoassay (CatchPoint® cAMP Fluorescent Assay Kit, Molecular Devices Corp., Sunnyvale, Calif.).

B1: pREX0659: exendin-4(1-30) fragment fused via (PEAPTD)2 linker to mTf (SEQ ID NO: 17) (protein)
chain: HGEGTFTSDLSKQMEEEAVRLFIEWLKNGGPEAPTDPEAPTDVPDKTVRWCAVSEHEATKCQSFRDHMKSVIPSDGPSVACVKKASYLDCIRAIAANEADAVTLDAGLVYDAYLAPNNLKPVVAEFYGSKEDPQTFYYAVAVVKKDSGFQMNQLRGKKSCHTGLGRSAGWNIPIGLLYCDLPEPRKPLEKAVANFFSGSCAPCADGTDFPQLCQLCPGCGCSTLNQYFGYSGAFKCLKDGAGDVAFVKHSTIFENLANKADRDQYELLCLDNTRKPVDEYKDCHLAQVPSHTVVARSMGGKEDLIWELLNQAQEHFGKDKSKEFQLFSSPHGKDLLFKDSAHGFLKVPPRMDAKMYLGYEYVTAIRNLREGTCPEAPTDECKPVKWCALSHHERLKCDEWSVNSVGKIECVSAETTEDCIAKIMNGEADAMSLDGGFVYIAGKCGLVPVLAENYNKADNCEDTPEAGYFAVAVVKKSASDLTWDNLKGKKSCHTAVGRTAGWNIPMGLLYNKINHCRFDEFFSEGCAPGSKKDSSLCKLCMGSGLNLCEPNNKEGYYGYTGAFRCLVEKGDVAFVKHQTVPQNTGGKNPDPWAKNLNEKDYELLCLDGTRKPVEEYANCHLARAPNHAVVTRKDKEACVHKILRQQQHLFGSNVADCSGNFCLFRSETKDLLFRDDTVCLAKLHDRNTYEKYLGEEYVKAVGNLRKCSTSSLLEACTFRRP
EC50: 0.85 nM

B2: pREX0658: exendin-4(1-31) fragment fused via (PEAPTD)2 linker to mTf (SEQ ID NO: 17) (protein)
chain: HGEGTFTSDLSKQMEEEAVRLFIEWLKNGGPPEAPTDPEAPTDVPDKTVRWCAVSEHEATKCQSFRDHMKSVIPSDGPSVACVKKASYLDCIRAIAANEADAVTLDAGLVYDAYLAPNNLKPVVAEFYGSKEDPQTFYYAVAVVKKDSGFQMNQLRGKKSCHTGLGRSAGWNIPIGLLYCDLPEPRKPLEKAVANFFSGSCAPCADGTDFPQLCQLCPGCGCSTLNQYFGYSGAFKCLKDGAGDVAFVKHSTIFENLANKADRDQYELLCLDNTRKPVDEYKDCHLAQVPSHTVVARSMGGKEDLIWELLNQAQEHFGKDKSKEFQLFSSPHGKDLLFKDSAHGFLKVPPRMDAKMYLGYEYVTAIRNLREGTCPEAPTDECKPVKWCALSHHERLKCDEWSVNSVGKIECVSAETTEDCIAKIMNGEADAMSLDGGFVYIAGKCGLVPVLAENYNKADNCEDTPEAGYFAVAVVKKSASDLTWDNLKGKKSCHTAVGRTAGWNIPMGLLYNKINHCRFDEFFSEGCAPGSKKDSSLCKLCMGSGLNLCEPNNKEGYYGYTGAFRCLVEKGDVAFVKHQTVPQNTGGKNPDPWAKNLNEKDYELLCLDGTRKPVEEYANCHLARAPNHAVVTRKDKEACVHKILRQQQHLFGSNVADCSGNFCLFRSETKDLLFRDDTVCLAKLHDRNTYEKYLGEEYVKAVGNLRKCSTSSLLEACTFRRP
EC50: 0.33 nM
